Results taken from US12195506B2, “Immunotherapy with A*01 restricted peptides and combination of peptides against cancers and related methods” (Immatics Biotechnologies GmbH, priority 2018, dated 2025).

target: HLA-A*01:01 (Homo sapiens, UniProt P04439, A114D/A174V/A182V/D101N/D185E/E176A/E190D/L180R/Q94H/R68K/S129P/T187R/V100A/V91M/W191G); experiment: MHC binding assay: UV-ligand exchange, ELISA of stabilized MHC complexes (peptide exchange yield); conditions: binding to HLA-A*01:01, UV-ligand exchange
In short: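 Peptide–MHC complexes were formed by UV-induced exchange of a photocleavable ligand for the test peptide. Exchange yield was measured by streptavidin-capture ELISA of 100-fold diluted complexes, detected with HRP anti-β2m at A450. Refolded HLA-A*02:01/MLA-001 monomers at 15-500 ng/ml served as standards.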

**Q.** “372 (SRSDFEWVY; listed as Homo sapiens) [compound 372]” was tested. Which Peptide exchange did it give?
**A.** ++ (>20% = ++)

**Q.** For “118 (LTWAHSAKY; listed as Homo sapiens) [compound 118]”, which Peptide exchange is on record?
**A.** +++ (>50 = +++)

**Q.** “348 (DSTDGCLLSF; listed as Homo sapiens) [compound 348]” was tested. Which Peptide exchange did it give?
**A.** ++ (>20% = ++)

**Q.** For “373 (FHADSDDESF; listed as Homo sapiens) [compound 373]”, which Peptide exchange is on record?
**A.** + (>10% =+)

**Q.** “274 (YADIHGDLL; listed as Homo sapiens) [compound 274]” was tested. Which Peptide exchange did it give?
**A.** +++ (>50 = +++)

**Q.** “78 (QLDSAVKNLY; listed as Homo sapiens) [compound 78]” was tested. Which Peptide exchange did it give?
**A.** +++ (>50 = +++)

**Q.** For “380 (VACGNNPVY; listed as Homo sapiens) [compound 380]”, which Peptide exchange is on record?
**A.** +++ (>50 = +++)

**Q.** “72 (VTDSTTKIAY; listed as Homo sapiens) [compound 72]” was tested. Which Peptide exchange did it give?
**A.** +++ (>50 = +++)

**Q.** For “344 (AVNALQSVY; listed as Homo sapiens) [compound 344]”, which Peptide exchange is on record?
**A.** ++ (>20% = ++)

**Q.** “162 (IADNPQLSFY; listed as Homo sapiens) [compound 162]” was tested. Which Peptide exchange did it give?
**A.** ++++ (>75% = ++++)

**Q.** “137 (EAYLERIGY; listed as Homo sapiens) [compound 137]” was tested. Which Peptide exchange did it give?
**A.** +++ (>50 = +++)

**Q.** With “318 (YMTSMALNY; listed as Homo sapiens) [compound 318]” as the substance, how does the Peptide exchange read?
**A.** +++ (>50 = +++)

**Q.** How did the Peptide exchange turn out when “294 (MMEMEGMY; listed as Homo sapiens) [compound 294]” was run?
**A.** +++ (>50 = +++)

**Q.** How did the Peptide exchange turn out when “265 (LSDIDSRYI; listed as Homo sapiens) [compound 265]” was run?
**A.** ++ (>20% = ++)

**Q.** How did the Peptide exchange turn out when “131 (LEDGIEQSAY; listed as Homo sapiens) [compound 131]” was run?
**A.** ++ (>20% = ++)

**Q.** For “280 (TTEMVSNESVDY; listed as Homo sapiens) [compound 280]”, which Peptide exchange is on record?
**A.** ++++ (>75% = ++++)

**Q.** “51 (STEERRLNY; listed as Homo sapiens) [compound 51]” was tested. Which Peptide exchange did it give?
**A.** +++ (>50 = +++)

**Q.** For “1 (TLDSTRTLY; listed as Homo sapiens) [compound 1]”, which Peptide exchange is on record?
**A.** ++++ (>75% = ++++)

**Q.** Which Peptide exchange does the source give for “105 (VVFDKSDLAKY; listed as Homo sapiens) [compound 105]” here?
**A.** ++ (>20% = ++)

**Q.** Which Peptide exchange does the source give for “181 (SVTDLIGGKW; listed as Homo sapiens) [compound 181]” here?
**A.** ++ (>20% = ++)

**Q.** With “109 (ISEDKSISF; listed as Homo sapiens) [compound 109]” as the substance, how does the Peptide exchange read?
**A.** ++ (>20% = ++)

**Q.** How did the Peptide exchange turn out when “281 (YPDLSELLM; listed as Homo sapiens) [compound 281]” was run?
**A.** ++ (>20% = ++)

**Q.** Which Peptide exchange does the source give for “133 (ITDVGPGNY; listed as Homo sapiens) [compound 133]” here?
**A.** +++ (>50 = +++)

**Q.** How did the Peptide exchange turn out when “134 (SAPSSSGSPLY; listed as Homo sapiens) [compound 134]” was run?
**A.** ++ (>20% = ++)

**Q.** Which Peptide exchange does the source give for “220 (DVERIKDTY; listed as Homo sapiens) [compound 220]” here?
**A.** ++ (>20% = ++)

**Q.** “211 (YLNEWGSRF; listed as Homo sapiens) [compound 211]” was tested. Which Peptide exchange did it give?
**A.** ++ (>20% = ++)

**Q.** Which Peptide exchange does the source give for “288 (TEEKFVSY; listed as Homo sapiens) [compound 288]” here?
**A.** + (>10% =+)

**Q.** Which Peptide exchange does the source give for “203 (LSQDELSKF; listed as Homo sapiens) [compound 203]” here?
**A.** ++ (>20% = ++)

**Q.** “383 (PPDHAVGRTKY; listed as Homo sapiens) [compound 383]” was tested. Which Peptide exchange did it give?
**A.** ++ (>20% = ++)

**Q.** “252 (DTTSHTYLQY; listed as Homo sapiens) [compound 252]” was tested. Which Peptide exchange did it give?
**A.** ++ (>20% = ++)

**Q.** Which Peptide exchange does the source give for “92 (TTDDTTAMASAS; listed as Homo sapiens) [compound 92]” here?
**A.** ++ (>20% = ++)

**Q.** How did the Peptide exchange turn out when “123 (LLKAKDILY; listed as Homo sapiens) [compound 123]” was run?
**A.** ++ (>20% = ++)

**Q.** “371 (WSDSTSQTIY; listed as Homo sapiens) [compound 371]” was tested. Which Peptide exchange did it give?
**A.** ++++ (>75% = ++++)

**Q.** How did the Peptide exchange turn out when “52 (TTQDELLVY; listed as Homo sapiens) [compound 52]” was run?
**A.** +++ (>50 = +++)

**Q.** With “289 (YTSHEDIGY; listed as Homo sapiens) [compound 289]” as the substance, how does the Peptide exchange read?
**A.** ++++ (>75% = ++++)

**Q.** With “222 (GSPDAVVSY; listed as Homo sapiens) [compound 222]” as the substance, how does the Peptide exchange read?
**A.** + (>10% =+)

**Q.** How did the Peptide exchange turn out when “271 (VAEPPVVCSY; listed as Homo sapiens) [compound 271]” was run?
**A.** ++ (>20% = ++)

**Q.** For “297 (RLDEAMISY; listed as Homo sapiens) [compound 297]”, which Peptide exchange is on record?
**A.** +++ (>50 = +++)

**Q.** How did the Peptide exchange turn out when “58 (YLENSASWY; listed as Homo sapiens) [compound 58]” was run?
**A.** ++++ (>75% = ++++)

**Q.** “22 (VMDTLGLFY; listed as Homo sapiens) [compound 22]” was tested. Which Peptide exchange did it give?
**A.** ++++ (>75% = ++++)

**Q.** “49 (GSFSIQHTY; listed as Homo sapiens) [compound 49]” was tested. Which Peptide exchange did it give?
**A.** ++ (>20% = ++)

**Q.** Which Peptide exchange does the source give for “184 (KTIQEVAGY; listed as Homo sapiens) [compound 184]” here?
**A.** ++ (>20% = ++)

**Q.** How did the Peptide exchange turn out when “80 (ELCPLPGTSAY; listed as Homo sapiens) [compound 80]” was run?
**A.** ++ (>20% = ++)

**Q.** How did the Peptide exchange turn out when “197 (NDEIDKLTGY; listed as Homo sapiens) [compound 197]” was run?
**A.** ++++ (>75% = ++++)

**Q.** “343 (YFGNYFTYY; listed as Homo sapiens) [compound 343]” was tested. Which Peptide exchange did it give?
**A.** + (>10% =+)

**Q.** For “255 (WELDSLEY; listed as Homo sapiens) [compound 255]”, which Peptide exchange is on record?
**A.** ++ (>20% = ++)

**Q.** How did the Peptide exchange turn out when “239 (SSERGSPIEKY; listed as Homo sapiens) [compound 239]” was run?
**A.** +++ (>50 = +++)

**Q.** Which Peptide exchange does the source give for “218 (FTAQLQLY; listed as Homo sapiens) [compound 218]” here?
**A.** +++ (>50 = +++)

**Q.** “161 (EAAPDIMHY; listed as Homo sapiens) [compound 161]” was tested. Which Peptide exchange did it give?
**A.** ++ (>20% = ++)

**Q.** “170 (VQIAKGMNY; listed as Homo sapiens) [compound 170]” was tested. Which Peptide exchange did it give?
**A.** +++ (>50 = +++)

**Q.** “397 (NSAINPLIY; listed as Homo sapiens) [compound 397]” was tested. Which Peptide exchange did it give?
**A.** ++++ (>75% = ++++)

**Q.** How did the Peptide exchange turn out when “232 (RYLNIVHATQLY; listed as Homo sapiens) [compound 232]” was run?
**A.** ++ (>20% = ++)

**Q.** “382 (YEPATMEQY; listed as Homo sapiens) [compound 382]” was tested. Which Peptide exchange did it give?
**A.** ++ (>20% = ++)

**Q.** For “179 (SSTDFTFASW; listed as Homo sapiens) [compound 179]”, which Peptide exchange is on record?
**A.** + (>10% =+)

**Q.** “193 (SQNGQLIHY; listed as Homo sapiens) [compound 193]” was tested. Which Peptide exchange did it give?
**A.** +++ (>50 = +++)

**Q.** For “396 (LPDPNVQKY; listed as Homo sapiens) [compound 396]”, which Peptide exchange is on record?
**A.** ++ (>20% = ++)

**Q.** Which Peptide exchange does the source give for “155 (HTMEVTVY; listed as Homo sapiens) [compound 155]” here?
**A.** +++ (>50 = +++)

**Q.** “230 (CVIETFHKY; listed as Homo sapiens) [compound 230]” was tested. Which Peptide exchange did it give?
**A.** +++ (>50 = +++)

**Q.** For “145 (LSDAVHVEF; listed as Homo sapiens) [compound 145]”, which Peptide exchange is on record?
**A.** +++ (>50 = +++)

**Q.** Which Peptide exchange does the source give for “141 (DAVAPGREY; listed as Homo sapiens) [compound 141]” here?
**A.** ++ (>20% = ++)

**Q.** How did the Peptide exchange turn out when “62 (VSELVTTGHY; listed as Homo sapiens) [compound 62]” was run?
**A.** +++ (>50 = +++)

**Q.** With “283 (ETILVSSSY; listed as Homo sapiens) [compound 283]” as the substance, how does the Peptide exchange read?
**A.** ++ (>20% = ++)

**Q.** For “176 (HTDLESPSAVY; listed as Homo sapiens) [compound 176]”, which Peptide exchange is on record?
**A.** +++ (>50 = +++)

**Q.** For “8 (TSRAANIPGY; listed as Homo sapiens) [compound 8]”, which Peptide exchange is on record?
**A.** + (>10% =+)

**Q.** For “235 (SIEIDHTQY; listed as Homo sapiens) [compound 235]”, which Peptide exchange is on record?
**A.** ++ (>20% = ++)

**Q.** With “346 (VAGLEAGVLY; listed as Homo sapiens) [compound 346]” as the substance, how does the Peptide exchange read?
**A.** ++ (>20% = ++)

**Q.** “190 (VSSTVHNLY; listed as Homo sapiens) [compound 190]” was tested. Which Peptide exchange did it give?
**A.** ++++ (>75% = ++++)

**Q.** With “261 (MTEGSTVNTEY; listed as Homo sapiens) [compound 261]” as the substance, how does the Peptide exchange read?
**A.** ++++ (>75% = ++++)

**Q.** How did the Peptide exchange turn out when “111 (TPIPFDKILY; listed as Homo sapiens) [compound 111]” was run?
**A.** ++ (>20% = ++)

**Q.** “290 (GQFTGTAGACRY; listed as Homo sapiens) [compound 290]” was tested. Which Peptide exchange did it give?
**A.** ++ (>20% = ++)

**Q.** For “391 (GSNPARYEF; listed as Homo sapiens) [compound 391]”, which Peptide exchange is on record?
**A.** ++ (>20% = ++)

**Q.** With “13 (NTHTGTRPY; listed as Homo sapiens) [compound 13]” as the substance, how does the Peptide exchange read?
**A.** ++ (>20% = ++)

**Q.** How did the Peptide exchange turn out when “237 (AQEAAVFLTLY; listed as Homo sapiens) [compound 237]” was run?
**A.** +++ (>50 = +++)

**Q.** Which Peptide exchange does the source give for “67 (NVDQNQNSY; listed as Homo sapiens) [compound 67]” here?
**A.** +++ (>50 = +++)

**Q.** For “129 (STIDFRAGF; listed as Homo sapiens) [compound 129]”, which Peptide exchange is on record?
**A.** ++ (>20% = ++)

**Q.** How did the Peptide exchange turn out when “228 (KSFDDIAKY; listed as Homo sapiens) [compound 228]” was run?
**A.** ++ (>20% = ++)

**Q.** “209 (EADPFLKYL; listed as Homo sapiens) [compound 209]” was tested. Which Peptide exchange did it give?
**A.** ++ (>20% = ++)

**Q.** With “234 (YTDLTTIQV; listed as Homo sapiens) [compound 234]” as the substance, how does the Peptide exchange read?
**A.** ++++ (>75% = ++++)

**Q.** For “398 (YYYDTHTNTY; listed as Homo sapiens) [compound 398]”, which Peptide exchange is on record?
**A.** + (>10% =+)

**Q.** Which Peptide exchange does the source give for “278 (AATVKSDIY; listed as Homo sapiens) [compound 278]” here?
**A.** ++ (>20% = ++)
